Test results from publication PMC7835363.

Key:
[1] = target: Schizosaccharomyces japonicus Yop1, full length, with a C-terminal SBP tag (Schizosaccharomyces japonicus) (UniProt B6K529); assay: SEC-MALS; in the detergent DDM; 20 mM Tris/HCl pH 7.5, 100 mM NaCl, 0.03% DDM; protein 0.2-1 mg/ml; protein conjugate model
[2] = target: Yop1F65Bpa (S. japonicus Yop1 with the photoreactive probe Bpa at F65 in TM2) (Schizosaccharomyces japonicus) (UniProt B6K529); assay: cross-linking; photo-cross-linking through Bpa; purified protein reconstituted into liposomes of S. cerevisiae lipid extract at a protein:lipid molar ratio of 1:200; UV for 30 min on an ice-cold block; SDS-PAGE and Coomassie-blue staining
[3] = target: Yop1F65Bpa (S. japonicus Yop1 with the photoreactive probe Bpa at F65 in TM2) (Schizosaccharomyces japonicus) (UniProt B6K529); assay: cross-linking + SEC; Yop1F65Bpa irradiated in liposomes, then membranes solubilized in DDM and run on SEC

For “Schizosaccharomyces japonicus Yop1, full length, with a C-terminal SBP tag (from UniProt B6K529 1-191) (natural protein)”, the stoichiometry N [1] was 2.

“Yop1F65Bpa (S. japonicus Yop1 with the photoreactive probe Bpa at F65 in TM2) (from UniProt B6K529 1-191) (natural protein)” was tested, and the percent of monomers cross-linked into dimers [2] was > 75% and the stoichiometry N [3] was 2.
